# Assay results taken from US8609353B2, “Diagnostics and methods for removal and detection of interferents” (Systagenix Wound Management (US), Inc., priority 2007, dated 2013).
# Primed or numbered codes have the meaning given here. * marks the point of attachment. Dabcyl″ = label, CN(C)c1ccc(/N=N/c2ccc(C(=O)*)cc2)cc1
# T1: elastase (Homo sapiens, UniProt P08246)
# T1 sequence (P08246 30-267): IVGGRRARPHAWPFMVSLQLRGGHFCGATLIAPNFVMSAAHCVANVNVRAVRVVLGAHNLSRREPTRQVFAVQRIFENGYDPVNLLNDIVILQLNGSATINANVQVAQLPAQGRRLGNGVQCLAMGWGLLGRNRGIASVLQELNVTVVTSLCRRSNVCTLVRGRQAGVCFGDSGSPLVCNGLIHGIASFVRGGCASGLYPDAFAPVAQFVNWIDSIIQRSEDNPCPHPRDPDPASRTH
# T2: human neutrophil elastase (Homo sapiens, UniProt P08246)
# T2 sequence (P08246 30-267): T1 sequence (P08246 30-267)
# T3: papain (Carica papaya, UniProt P00784)
# T3 construct: purchased DPT Laboratories ACCUZYME
# T3 sequence (P00784 134-345): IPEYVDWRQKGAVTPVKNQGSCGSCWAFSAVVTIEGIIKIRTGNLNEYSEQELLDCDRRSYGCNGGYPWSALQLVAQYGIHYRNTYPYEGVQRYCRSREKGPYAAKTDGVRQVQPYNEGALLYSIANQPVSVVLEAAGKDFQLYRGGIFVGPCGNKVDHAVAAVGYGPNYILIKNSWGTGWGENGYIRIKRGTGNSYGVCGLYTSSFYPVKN
# T4: CPI2 (peptide sequence EGAMFLEAIPMSIPK)
# T4 chain: EGAMFLEAIPMSIPK
# T5: E8 (peptide sequence EQADALHDQASALK)
# T5 chain: EQADALHDQASALK
# T6: G6 (peptide sequence EAAHQSALQSAK)
# T6 chain: EAAHQSALQSAK
# T7: SAP2 (peptide sequence ETKVEENEAIQK)
# T7 chain: ETKVEENEAIQK
# T8: T2 (peptide sequence EVSRRRRRGGK)
# T8 chain: EVSRRRRRGGK
# T9: T3 (peptide sequence KKASEVSRRRRRGGK)
# T9 chain: KKASEVSRRRRRGGK
# T10: PAIN1 peptide (NH2-E(Edans) PMPPLCTSMK(Dabcyl)-COOH)
# T10 chain: PMPPLCTSMK
# B1: human neutrophil elastase (protein)
# chain: IVGGRRARPHAWPFMVSLQLRGGHFCGATLIAPNFVMSAAHCVANVNVRAVRVVLGAHNLSRREPTRQVFAVQRIFENGYDPVNLLNDIVILQLNGSATINANVQVAQLPAQGRRLGNGVQCLAMGWGLLGRNRGIASVLQELNVTVVTSLCRRSNVCTLVRGRQAGVCFGDSGSPLVCNGLIHGIASFVRGGCASGLYPDAFAPVAQFVNWIDSIIQ
# B2: papain (in ACCUZYME, a papain-containing debriding ointment, DPT Laboratories) (protein)
# chain: T3 sequence (P00784 134-345)
# How the values were obtained:
# elastase = target: T1, elastase; experiment: HE1-Affigel bead HRP release spin through assay with elastase; assay type: biochemical; conditions: 5 μg/ml elastase, 5 minutes; ABTS substrate over 5 minutes
# Experimental: The peptide was tested for activity by conjugating one end to Affigel 10 beads (BioRad) and the other end to HRP reporter enzyme. The sequence of the HE1 peptide used for this assay was H2N-PFPQANYITYC-OH) (SEQ ID NO: 9). The activity was measured by detecting the release of HRP from the beads in a spin through assay. Testing was performed with 20 μl of a 1:10 dilution of HE1-Affigel beads reacted with 5 μg/ml elastase in 200 μl total volume for 5 minutes.
# Pseudomonas aeruginosa = experiment: HE1-Affigel bead HRP release specificity test with overnight grown culture; assay type: biochemical; conditions: 100 μl overnight grown culture; ABTS over 5 minutes
# Experimental: (§1) Specificity was tested with 20 μl of a 1:10 dilution of the Affigel beads reacted with 100 μl media control or overnight grown culture of Pseudomonas aeruginosa, Streplococcus pyogenes, Escherichia coli, and Enterococcus faecalis in 200 μl total volume, as described above. The samples were spun down and a 20 μl aliquot measured in 500 μl total volume ABTS over 5 minutes.
# bacterial proteases = experiment: HE1 specificity versus bacterial proteases; assay type: biochemical
# Experimental: as §1
# [1] = target: T2, human neutrophil elastase; experiment: FRET protease assay of bacterial peptide substrates with human neutrophil elastase (cross-reactivity); assay type: biochemical
# Experimental: Based on the concentration of elastase from human wound fluid, it was determined whether this amount of elastase (0-50 μg/ml) would cause false positives in a protease assay using fluorescence resonance energy transfer (FRET) with peptides that are specific substrates for bacteria (FIGS. 3A-3C). Broad spectrum pathogen peptides such as CPI2 (peptide sequence EGAMFLEAIPMSIPK (referred to herein as SEQ ID NO: 3)) (that reacts with Staphylococcus aureus, Proteus mirabilis, Pseudomonas aeruginosa, Enterococcus faecalis, and Streptococcus pyogenes) were studied. Specific peptides for Pseudomonas aeruginosa (E8 (peptide sequence […] (referred to herein as SEQ ID NO: 4)) and G6 (peptide sequence EAAHQSALQSAK (referred to herein as SEQ ID NO: 5))), Staphylococcus aureus (SAP2 (peptide sequence […] (referred to herein as SEQ ID NO: 6)), Escherichia coli (T2 (peptide sequence EVSRRRRRGGK (referred to herein as SEQ ID NO: 7)) and T3 (peptide sequence KKASEVSRRRRRGGK (referred to herein as SEQ ID NO: 8)) were also studied. The […] were tested with three concentrations of human neutrophil elastase. The peptide substrates were tested in the FRET format with the fluorescent dye Edans attached to one end of the peptide and the quencher Dabcyl attached to the other end of the peptide. In this FRET assay format, amino acids are added to the terminals of the peptides to introduce the FRET assay dye. For example, an “E” is added to the N terminal and a “K” is added to the C terminal. For example, the “E” can be (E-EDANS) and the “K” can be (K-Dabcyl). Cleavage of the peptide substrate by human neutrophil elastase will produce a fluorescent signal.
# papain = target: T3, papain; experiment: PAIN1 FRET assay with papain-containing ointment ACCUZYME; assay type: biochemical; conditions: 10 μl of 120 mg/ml ACCUZYME, over one hour
# Experimental: (§2) PAIN1 was designed from a high throughput screen. The peptide was tested in the FRET format with the fluorescent dye Edans attached to one end of the peptide and the quencher Dabcyl attached to the other end of the peptide. The sequence of the PAIN1 peptide used for this assay was NH2-E(Edans) PMPPLCTSMK(Dabcyl)-COOH (SEQ ID NO: 10). Cleavage of the peptide substrate by papain will produce a fluorescent signal. The peptide was tested using 5 μl of a 5 mg/ml solution with 10 μl of overnight grown bacterial culture or with 10 μl of 120 mg/ml ACCUZYME®, a papain-containing debriding ointment (DPT Laboratories), in 100 μl total volume. The bacteria cultures tested were Pseudomonas aeruginosa (PA14), Streptococcus pyogenes (grown in BHI and TSB media), E. coli, Enterococcus faecalis, and Serratia marcesens. The relative fluorescence is shown over one hour. […] In particular, the bacteria that appear to cross-react the most with PAIN1 were Pseudomonas aeruginosa and Streptococcus pyogenes.
# [2] = system: Pseudomonas aeruginosa (PA14); experiment: PAIN1 FRET assay with overnight grown bacterial culture; assay type: biochemical; conditions: 10 μl overnight grown culture, over one hour
# Experimental: as §2
# Streptococcus pyogenes = experiment: as above; assay type: biochemical; conditions: 10 μl overnight grown culture, over one hour
# Experimental: as §2
# [3] = target: T4, CPI2 (peptide sequence EGAMFLEAIPMSIPK)
# [4] = target: T5, E8 (peptide sequence EQADALHDQASALK)
# [5] = target: T6, G6 (peptide sequence EAAHQSALQSAK)
# [6] = target: T7, SAP2 (peptide sequence ETKVEENEAIQK)
# [7] = target: T8, T2 (peptide sequence EVSRRRRRGGK)
# [8] = target: T9, T3 (peptide sequence KKASEVSRRRRRGGK)
# [9] = target: T10, PAIN1 peptide (NH2-E(Edans) …)
molecule,measurement,setting,value
H2N-PFPQANYITYC-OH (H-PFPQANYITYC-OH) [HE1],HRP release signal at 405 nm,elastase,clear signal
same,HRP release signal at 405 nm,Pseudomonas aeruginosa,very minor increase
same,cross-reaction with bacterial proteases,bacterial proteases,not cross react
EGAMFLEAIPMSIPK (CPI2-related peptide),cross-reactivity with elastase (fluorescent signal),"[1]; 50 μg/ml of elastase, FIG. 3C",cross-reacted
same,cross-reactivity with elastase (fluorescent signal),"[1]; Five μg/ml of elastase, FIG. 3B",small response
EQADALHDQASALK (Pseudomonas aeruginosa E8-related peptide),cross-reactivity with elastase (fluorescent signal),"[1]; 50 μg/ml of elastase, FIG. 3C",cross-reacted
NH2-E(Edans) PMPPLCTSMK(Dabcyl)-COOH ({E(Edans)}-PMPPLCTSMK(Dabcyl″)-OH) [PAIN1],relative fluorescence response,papain,high response
same,relative fluorescence response,[2],lower but significant responses
same,relative fluorescence response,Streptococcus pyogenes,lower but significant responses
B1,"FRET peptide cleavage (fluorescent signal), 500 ng/ml elastase",[3],no signal on any of the peptides when tested with 500 ng/ml of elastase
same,"FRET peptide cleavage (fluorescent signal), 5 ug/ml elastase",[3],Five µg/ml of elastase cross-reacted with the broad spectrum peptide CPI2 (small response)
same,"FRET peptide cleavage (fluorescent signal), 50 ug/ml elastase",[3],50 µg/ml of elastase cross-reacted with both peptides CPI2 and E8
same,"FRET peptide cleavage (fluorescent signal), 500 ng/ml elastase",[4],no signal on any of the peptides when tested with 500 ng/ml of elastase
same,"FRET peptide cleavage (fluorescent signal), 50 ug/ml elastase",[4],50 µg/ml of elastase cross-reacted with both peptides CPI2 and E8
same,"FRET peptide cleavage (fluorescent signal), 500 ng/ml elastase",[5],no signal on any of the peptides when tested with 500 ng/ml of elastase
same,"FRET peptide cleavage (fluorescent signal), 500 ng/ml elastase",[6],no signal on any of the peptides when tested with 500 ng/ml of elastase
same,"FRET peptide cleavage (fluorescent signal), 500 ng/ml elastase",[7],no signal on any of the peptides when tested with 500 ng/ml of elastase
same,"FRET peptide cleavage (fluorescent signal), 500 ng/ml elastase",[8],no signal on any of the peptides when tested with 500 ng/ml of elastase
B2,"FRET peptide cleavage (relative fluorescence over one hour), 10 ul of 120 mg/ml ACCUZYME",[9],A high response was seen with papain ointment
